Where two headings read alike, the source gives them in different places.
Key:
Assay in all cases: binding to purified HLA
DRB1*1101 [1] = target: DRB1*1101
DRB1*0404 [2] = target: DRB1*0404
DRB1*1302 [3] = target: DRB1*1302
DRB4*0101 [4] = target: DRB4*0101
DRB5*0101 [5] = target: DRB5*0101
DRB1*0101 [6] = target: DRB1*0101
DRB1*1501 [7] = target: DRB1*1501
DRB1*0901 [8] = target: DRB1*0901
DRB1*0802 [9] = target: DRB1*0802
DRB1*0401 [10] = target: DRB1*0401
DRB1*0301 [11] = target: DRB1*0301
DRB1*0701 [12] = target: DRB1*0701
DRB1*0405 [13] = target: DRB1*0405
DRB1*1101 [14] = target: DRB1*1101; remark: listed apart in the source
DRB1*0404 [15] = target: DRB1*0404; remark: listed apart in the source
DRB1*1302 [16] = target: DRB1*1302; remark: listed apart in the source
DRB4*0101 [17] = target: DRB4*0101; remark: listed apart in the source
DRB5*0101 [18] = target: DRB5*0101; remark: listed apart in the source
DRB1*0101 [19] = target: DRB1*0101; remark: listed apart in the source
DRB1*1501 [20] = target: DRB1*1501; remark: listed apart in the source
DRB1*0901 [21] = target: DRB1*0901; remark: listed apart in the source
DRB1*0802 [22] = target: DRB1*0802; remark: listed apart in the source
DRB1*0401 [23] = target: DRB1*0401; remark: listed apart in the source
DRB1*0301 [24] = target: DRB1*0301; remark: listed apart in the source
DRB1*0701 [25] = target: DRB1*0701; remark: listed apart in the source
DRB1*0405 [26] = target: DRB1*0405; remark: listed apart in the source

| IC50 (DRB1*1101 [1]) [nM] | IC50 (DRB1*0404 [2]) [nM] | IC50 (DRB1*1302 [3]) [nM] | IC50 (DRB4*0101 [4]) [nM] | IC50 (DRB5*0101 [5]) [nM] | IC50 (DRB1*0101 [6]) [nM] | IC50 (DRB1*1501 [7]) [nM] | IC50 (DRB1*0901 [8]) [nM] | IC50 (DRB1*0802 [9]) [nM] | IC50 (DRB1*0401 [10]) [nM] | IC50 (DRB1*0301 [11]) [nM] | IC50 (DRB1*0701 [12]) [nM] | IC50 (DRB1*0405 [13]) [nM] | IC50 (DRB1*1101 [14]) [nM] | IC50 (DRB1*0404 [15]) [nM] | IC50 (DRB1*1302 [16]) [nM] | IC50 (DRB4*0101 [17]) [nM] | IC50 (DRB5*0101 [18]) [nM] | IC50 (DRB1*0101 [19]) [nM] | IC50 (DRB1*1501 [20]) [nM] | Binder | other results |
| --- | --- | --- | --- | --- | --- | --- | --- | --- | --- | --- | --- | --- | --- | --- | --- | --- | --- | --- | --- | --- | --- |
| 14 | 2.5 | 1190 | 267 | 23 | 4.2 | 12 | 21 | 9.3 | 2.5 | 198 | 53 | 12 | – | – | – | – | – | – | – | AAAHFVAAWTLHAAA [H4.H12] | – |
| 46 | 4.5 | 187 | 5520 | 4.4 | 3.4 | 103 | 18 | 16 | 4 | 140 | 74 | 9.5 | – | – | – | – | – | – | – | AAAFFVAANTLKADA [F4.N9.D14] | – |
| – | – | – | – | – | – | – | – | – | – | – | – | – | 38 | 4.1 | 1150 | 350 | 48 | 5.1 | 51 | AAAEFVAAWTLHAAA [E4.H12] | IC50 (DRB1*0901 [21]): 44 nM; IC50 (DRB1*0802 [22]): 24 nM; IC50 (DRB1*0401 [23]): 3.1 nM; IC50 (DRB1*0301 [24]): 134 nM; IC50 (DRB1*0701 [25]): 97 nM; IC50 (DRB1*0405 [26]): 27 nM |
| 17 | 0.67 | 2560 | 81 | 18 | 3.4 | 16 | 13 | 5.9 | 1 | 126 | 78 | 4.4 | – | – | – | – | – | – | – | AAAYFVAAFTLHAAA [Y4.F9.H12] | – |
| – | – | – | – | – | – | – | – | – | – | – | – | – | 22 | 6.8 | 47 | 862 | 33 | 4.1 | 79 | AAAHFVAANTLHAAA [H4.N9.H12] | IC50 (DRB1*0901 [21]): 37 nM; IC50 (DRB1*0802 [22]): 17 nM; IC50 (DRB1*0401 [23]): 4.5 nM; IC50 (DRB1*0301 [24]): 361 nM; IC50 (DRB1*0701 [25]): 76 nM; IC50 (DRB1*0405 [26]): 18 nM |
| – | – | – | – | – | – | – | – | – | – | – | – | – | 41 | 8.1 | 801 | 526 | 19 | 6.8 | 31 | AAAHFVAAFTLKAEA [H4.F9.E14] | IC50 (DRB1*0901 [21]): 46 nM; IC50 (DRB1*0802 [22]): 19 nM; IC50 (DRB1*0401 [23]): 6.4 nM; IC50 (DRB1*0301 [24]): 855 nM; IC50 (DRB1*0701 [25]): 49 nM; IC50 (DRB1*0405 [26]): 8.1 nM |
| – | – | – | – | – | – | – | – | – | – | – | – | – | 16 | 5.2 | 1420 | 567 | 20 | 2.7 | 4.2 | AAANFVAAYTLHAAA [N4.Y9.H12] | IC50 (DRB1*0901 [21]): 25 nM; IC50 (DRB1*0802 [22]): 7.5 nM; IC50 (DRB1*0401 [23]): 1.8 nM; IC50 (DRB1*0301 [24]): 171 nM; IC50 (DRB1*0701 [25]): 67 nM; IC50 (DRB1*0405 [26]): 19 nM |
| – | – | – | – | – | – | – | – | – | – | – | – | – | 27 | 3.2 | 1450 | 448 | 52 | 3.9 | 6.9 | AAAEFVAAYTLHAAA [E4.Y9.H12] | IC50 (DRB1*0901 [21]): 28 nM; IC50 (DRB1*0802 [22]): 13 nM; IC50 (DRB1*0401 [23]): 2.3 nM; IC50 (DRB1*0301 [24]): 144 nM; IC50 (DRB1*0701 [25]): 161 nM; IC50 (DRB1*0405 [26]): 17 nM |

Further lines, the binder ahead of its results:

| Binder | IC50 (DRB1*1101 [1]) [nM] | IC50 (DRB1*0404 [2]) [nM] | IC50 (DRB1*1302 [3]) [nM] | IC50 (DRB4*0101 [4]) [nM] | IC50 (DRB5*0101 [5]) [nM] | IC50 (DRB1*0101 [6]) [nM] | IC50 (DRB1*1501 [7]) [nM] | IC50 (DRB1*0901 [8]) [nM] | IC50 (DRB1*0802 [9]) [nM] | IC50 (DRB1*0401 [10]) [nM] | IC50 (DRB1*0301 [11]) [nM] | IC50 (DRB1*0701 [12]) [nM] | IC50 (DRB1*0405 [13]) [nM] | IC50 (DRB1*1101 [14]) [nM] | IC50 (DRB1*0404 [15]) [nM] | IC50 (DRB1*1302 [16]) [nM] | IC50 (DRB4*0101 [17]) [nM] | IC50 (DRB5*0101 [18]) [nM] | IC50 (DRB1*0101 [19]) [nM] | IC50 (DRB1*1501 [20]) [nM] | other results |
| --- | --- | --- | --- | --- | --- | --- | --- | --- | --- | --- | --- | --- | --- | --- | --- | --- | --- | --- | --- | --- | --- |
| AAAYFVAAWTLHAAA [Y4.H12] | 18 | 2.6 | 1560 | 279 | 15 | 3.7 | 16 | 18 | 9.7 | 2.6 | 119 | 55 | 6.9 | – | – | – | – | – | – | – | – |
| AAAWFVAANTLHAAA [W4.N9.H12] | 16 | 5.5 | 38 | 606 | 22 | 3.8 | 101 | 33 | 8.6 | 2.9 | 174 | 43 | 21 | – | – | – | – | – | – | – | – |
| AAAFFVAANTLHAAA [F4.N9.H12] | 42 | 4.1 | 64 | 876 | 26 | 6.5 | 70 | 31 | 28 | 3.8 | 286 | 82 | 27 | – | – | – | – | – | – | – | – |
| AAAYFVAANTLHAAA [Y4.N9.H12] | 14 | 5.2 | 54 | 703 | 16 | 4.5 | 53 | 21 | 12 | 3.3 | 130 | 49 | 13 | – | – | – | – | – | – | – | – |
| AAAKFVAAWTLKAAA [SEQ ID NO: 4] | 11 | 2.9 | 648 | 207 | 5.4 | 3.3 | 9.8 | 28 | 5.2 | 2.6 | 209 | 49 | 25 | – | – | – | – | – | – | – | – |
